To fix the notation:
B1: VGX-300 (Fc fusion)
chain: YSMTPPTLNITEESHVIDTGDSLSISCRGQHPLEWAWPGAQEAPATGDKDSEDTGVVRDCEGTDARPYCKVLLLHEVHANDTGSYVCYYKYIKARIEGTTAASSYVFVRDFEQPFINKPDTLLVNRKDAMWVPCLVSIPGLNVTLRSQSSVLWPDGQEVVWDDRRGMLVSTPLLHDALYLQCETTWGDQDFLSNPFLVHITGNELYDIQLLPRKSLELLVGEKLVLNCTVWAEFNSGVTFDWDYPGKQAERGKWVPERRSQQTHTELSSILTIHNVSQHDLGSYVCKANNGIQRFRESTEVIVHE
notes: only Ig-like domains I-III were in the molecule; Produced by transient expression in CHO or HEK cells; also called Parent; VGX-300 parent; not shown: Fc region gamma chain (detected with anti-human IgG)
B2: VGX-301-ΔN2 (Fc fusion)
chain: B1 chain with N80Q
notes: also called N2 mutant; not shown: Fc region gamma chain as in VGX-300
B3: Human VEGF-D (ligand, UniProt O43915 93-201, looked up)
chain: FYDIETLKVIDEEWQRTQCSPRETCVEVASELGKSTNTFFKPPCVNVFRCGGCCNEESLICMNTSTSYISKQLFEISVPLTSVPELVPVKVANHTGCKCLPTAPRHPYS
notes: also called VEGF-D ligand
B4: Human VEGF-C (ligand, UniProt P49767 103-227, looked up)
chain: TEETIKFAAAHYNTEILKSIDNEWRKTQCMPREVCIDVGKEFGVATNTFFKPPCVSVYRCGGCCNSEGLQCMNTSTSYLSKTLFEITVPLSQGPKPVTISFANHTSCRCMSKLDVYRQVHSIIRR
notes: also called VEGF-C ligand

The target of assay [1] is B4. As to the kind of experiment: cell-based or functional assay.
For assay [2], the target named is B3. As to the kind of experiment: cell-based or functional assay.
Assay [3] addresses B4. As to the kind of experiment: cell-based or functional assay. This is another data set of the same source.
Assay [4] addresses B3. As to the kind of experiment: cell-based or functional assay. The source holds these as a separate data set.
Assay [5] addresses B4. As to the kind of experiment: cell-based or functional assay. The source holds these as a separate data set.
Assay [6] concerns the target B3. As to the kind of experiment: cell-based or functional assay. This is another data set of the same source.
In assay [7] the target is B4. As to the kind of experiment: ELISA on plate-coated VEGF-C (2 µg/mL), anti-human IgG-HRP detection; sigmoidal fit of the curve of FIG. 2A. (ELISA stands for enzyme-linked immunosorbent assay.)
The target in assay [8] is B3. As to the kind of experiment: ELISA on plate-coated VEGF-D (2 µg/mL), anti-human IgG-HRP detection; sigmoidal fit of the curve of FIG. 2A.
Assay [9] addresses B1. As to the kind of experiment: SPR, ProteOn XPR36; trap captured on protein G' on a GLM chip, ligand as analyte. The text has this: (§1) The results of the affinity experiment are provided below in Table 5.
Assay [10] deals with B2. The description is as above.
Excerpt: as §1

Positions count from the first letter of the chain named. Read-outs that look alike come from different tables or passages of the source.

B1: the “IC50 (read off the curve); VEGF-C-driven proliferation (WST-1) of Ba/F3 cells with the VEGFR-2 ECD/EpoR chimeric receptor” value in assay [1] was approximately 0.02 µg/mL. For the same molecule, the “IC50 (read off the curve); VEGF-D-driven proliferation (WST-1) of Ba/F3 cells with the VEGFR-2 ECD/EpoR chimeric receptor” value in [2] is approximately 3 µg/mL. Moreover, the “IC50 (read off the curve); VEGF-C-driven proliferation (WST-1) of Ba/F3 cells with the VEGFR-3 ECD/EpoR chimeric receptor” value in assay [3] was approximately 0.01 µg/mL; in assay [5], approximately 0.007 µg/mL. Further, the “IC50 (read off the curve); VEGF-D-driven proliferation (WST-1) of Ba/F3 cells with the VEGFR-3 ECD/EpoR chimeric receptor” value is approximately 0.4 µg/mL in assay [4] and approximately 0.5 µg/mL in assay [6]. Besides, the EC50 in [7] came out at 0.058 µg/mL; in assay [8] it was 0.504 µg/mL.
Consider B2, for which, in assay [5], the “IC50 (read off the curve); VEGF-C-driven proliferation (WST-1) of Ba/F3 cells with the VEGFR-3 ECD/EpoR chimeric receptor” value is approximately 0.005 µg/mL. Further, the “IC50 (read off the curve); VEGF-D-driven proliferation (WST-1) of Ba/F3 cells with the VEGFR-3 ECD/EpoR chimeric receptor” value in [6] was approximately 0.3 µg/mL. In addition, the EC50 in assay [7] turned out to be 0.0295 µg/mL; in [8], 0.105 µg/mL.
For the molecule B3, the Kd in assay [9] came out at 0.625 nM; in assay [10] it was 0.677 nM.
On to B4, for which, in assay [9], the Kd was found to be 0.0051 nM, the koff worked out at 1.11e-05 s⁻¹ and the kon is 2.18e+06 M⁻¹ s⁻¹. In assay [10], the dissociation constant (Kd) came to 0.0037 nM, the koff is 1.03e-05 s⁻¹ and the kon is 2.79e+06 M⁻¹ s⁻¹.

Broadly, the EC50 is the concentration that produces a half-maximal response. A low value points to a more potent agent. A word on the Kd: it is the constant that tells how readily two partners part at equilibrium. The low end stands for tighter binding, the high end for weaker binding. As a reminder, the koff is the rate constant with which the complex falls apart. Read a low koff as slow dissociation. What is called kon is the second-order rate constant of association. A high value points to fast association.

The values above are taken from patent US20170349886A1 (VEGENICS, published 2017).
